From patent US20240383989A1 (PHARMABCINE, published 2024) come the findings set out here.

Test [1] addresses T1, human KDR1 to 3 domain (human, UniProt P35968 20-327, limits assumed).
T1 construct: domain: KDR1 to 3 domain; The panning antigen was KDR1 to 3 domain-Fc; Treated as one molecule; also called KDR1 to 3 domains; KDR D1 to D3
As to the kind of experiment: BLI (Octet), KDR1 to 3 domains on biosensor, scFv added, off-rate screening.

Test [2] deals with T1, human KDR1 to 3 domain. As to the kind of experiment: BLI (Octet), antibody on biosensor, human KDR1 to 3 as analyte. On the procedure: The binding of the selected antibodies to the KDR1 to 3 domain was measured using the Octet system (Fortebio Inc. US).
A general note: Biolayer interferometry detects binding as a change in optical thickness at a sensor tip.

Test [3] deals with human KDR1 to 3 domain (human) (UniProt P35968). As to the kind of experiment: BLI (Octet), KDR1 to 3 domains on biosensor, scFv added, off-rate screening.
human KDR1 to 3 domain (human), sequence (P35968 20-327 limits assumed): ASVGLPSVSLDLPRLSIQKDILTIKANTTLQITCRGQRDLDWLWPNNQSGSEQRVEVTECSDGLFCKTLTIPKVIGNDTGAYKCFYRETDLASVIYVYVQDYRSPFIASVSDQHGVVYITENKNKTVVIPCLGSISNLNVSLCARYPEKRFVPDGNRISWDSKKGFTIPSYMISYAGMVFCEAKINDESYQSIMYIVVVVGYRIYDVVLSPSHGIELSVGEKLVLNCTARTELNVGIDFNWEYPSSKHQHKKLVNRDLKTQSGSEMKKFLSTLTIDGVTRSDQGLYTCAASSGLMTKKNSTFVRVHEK
Test [4] shares this target. As to the kind of experiment: BLI (Octet), antibody on biosensor, human KDR1 to 3 as analyte.

By koff is commonly meant the first-order rate constant of dissociation. The low end stands for slow dissociation, the high end for fast dissociation. The term Kd denotes a measure of binding affinity in units of concentration. A lower Kd goes with a tighter complex. Broadly, the kon is a measure of how fast the partners come together. A low value points to slower complex formation.

Changes are numbered by the printed parent chain.

T1 sequence (P35968 20-327 limits assumed): as above

B1: D4 (scFv) (scFv, part only; not given: scFv linker, domain order, tags, V domains shown, not shown: another chain or arm of the molecule; small tags and cut ends)
VH: EVQLVESGGGLVQPGGSLRLSCAASGYTFSSYWMSWVRQAPGKGLEWVSEINPGNGHTNYNEKFKSRFTISRDKSKNTLYLQMNSLRAEDTAVYYCARHWGPSLTSPFDYWGQGTLVTVSS
VL: DIQMTQSPSSLSASVGDRVTITCRADNLGDVNVHWYQQKPGKAPKLLIYYDADRPSGVPSRFSGSNSGNDATLTISSLQPEDFATYYCQAPTNNDPYTFGQGTKVEIK
B1: the koff in test [1] was 0.000165 s⁻¹.

B2: A5 (scFv) (scFv, part only; not given: scFv linker, domain order, tags, V domains shown, not shown: another chain or arm of the molecule; small tags and cut ends)
VH: B1 VH
VL: B1 VL with N93T, N94H, D95L
Consider B2, for which the koff in test [1] was found to be 0.000187 s⁻¹.

B3: LHL-G1 (scFv) (scFv, V domains shown)
VH: B1 VH with H99S, W100Y, G101R, Y110F
VL: DIQMTQSPSSLSASVGDRVTITCRADNLGDVNVHWYQQKPGKAPKLLIYYDADRPSGVPSRFSGSNSGNDATLTISSLQPEDFATYYCQAPTTNEPYTFGQGTKVEIKR
As to B3, the koff in test [1] came to 0.000239 s⁻¹.

B4: LH-E7 (scFv) (scFv, V domains shown)
VH: B1 VH
VL: B3 VL with T93R, N94I, E95A
Turning to B4, the koff in test [1] was determined as 0.000111 s⁻¹.

B5: D3 (scFv) (scFv, part only; not given: scFv linker, domain order, tags, V domains shown, not shown: another chain or arm of the molecule; small tags and cut ends)
VH: B1 VH
VL: B1 VL with N93K, D95V
On to B5, for which the koff in test [1] amounted to 0.00015 s⁻¹.

B6: D4 (IgG) (antibody, V domains shown)
VH: B1 VH
VL: B3 VL with T93N, E95D
notes: Converted to IgG with the pfusess-hchg1 (human IgG1) and pfuse2ss-hclk (human kappa) vectors
B6: in test [2], binding was put at a Kd of 0.366 nM and the koff amounted to 3.45e-05 s⁻¹.

B7: LHL-G1 (IgG) (antibody, V domains shown)
VH: B1 VH with H99S, W100Y, G101R, Y110F
VL: B3 VL
notes: as for B6
In test [2], B7 registered a koff of 0.000251 s⁻¹ and a kon of 73700 M⁻¹ s⁻¹.

B8: A5 (IgG) (antibody, V domains shown)
VH: B1 VH
VL: B3 VL with N94H, E95L
notes: as for B6
Consider B8, for which, in test [2], the Kd was determined as 0.886 nM and the koff was 8.86e-05 s⁻¹.

B9: LH-E7 (IgG) (antibody, V domains shown)
VH: B1 VH
VL: B3 VL with T93R, N94I, E95A
notes: Converted to IgG; VH was cloned into Invivogen pfusess-hchg1 (human IgG1 heavy constant) and VL into pfuse2ss-hclk (human kappa constant); also called LH-67; LH-ET
In test [2], B9 came in with a Kd of 1.3 nM, a koff of 6.55e-05 s⁻¹ and a kon of 50600 M⁻¹ s⁻¹.

B10: D3 (IgG) (antibody, V domains shown)
VH: B1 VH
VL: B3 VL with T93K, E95V
notes: as for B6
In test [2], B10 had a Kd of 0.773 nM, a koff of 8.67e-05 s⁻¹ and a kon of 112000 M⁻¹ s⁻¹.

B11: 6A6 (scFv) (scFv, from another filing, V domains shown)
VH: QMQLVQSGAEVKKPGASVKLSCKASGYTFSSYWMHWVRQAPGQRLEWMGEINPGNGHTNYNEKFKSRVTITVDKSASTAYMELSSLRSEDTAVYYCAKIWGPSLTSPFDYWGQGTLVTVSS
VL: SNFMLTQPPSVSVSPGKTARITCRGDNLGDVNVHWYQQRPGQAPVLVMYYDADRPSGIPERFSGSNSGNTATLTISGVEAGDEADYYCQVWDRTSEYVFGTGTKVTVLG
Molecule B11 registered a koff in test [3] of 0.000266 s⁻¹.

B12: 6A6 (IgG) (antibody, from another filing, V domains shown)
VH: B11 VH
VL: B11 VL
In test [4], B12 yielded a Kd of 13.2 nM, a koff of 0.00168 s⁻¹ and a kon of 127000 M⁻¹ s⁻¹.
